Measured values reported in publication PMC6261967.

Experiments:
[1] = biological target: 40S ribosomal subunit (human (endogenous in HeLa)) (UniProt P62753); experiment: co-sedimentation; ribosome fractions from HeLa cells, first and second 10-40% sucrose gradient, 20 mM Tris-HCl pH 7.5, 500 mM KCl, 4 mM magnesium acetate, 2 mM DTT, 4 °C; fractions and the purified subunits blotted for PABP, without GST-Paip2 treatment
[2] = biological target: 60S ribosomal subunit (human (endogenous in HeLa)) (UniProt P40429); experiment: as above
[3] = biological target: the ribosome (40S + 60S subunits) (human (endogenous in HeLa)) (UniProt P62753); experiment: co-sedimentation; puromycin-treated crude ribosomal preparation resolved by sucrose-gradient centrifugation; ribosome fractions combined for western blot (Supplementary Fig. S1)

molar ratio of subunit to PABP in the purified subunit (western blot) [1]: 10
molar ratio of subunit to PABP in the purified subunit (western blot) [2]: 10
molar ratio of PABP to the ribosome (40S + 60S subunits) (western blot) [3]: 2
Substance: poly(A)-binding protein (PABP), endogenous in HeLa ribosome preparations (from UniProt P11940 1-636) (natural protein)
